These results are taken from patent publication US20200347127A1 (CRESCENDO BIOLOGICS, published 2020).

Numbering of substitutions follows the chain as printed. Read-outs that look alike come from different tables or passages of the source.

For test [1], the target named is T1, recombinant human IL-17A (human, UniProt Q16552 24-155). Briefly: cell-based or functional assay.
The target of test [2] is T1, recombinant human IL-17A. Briefly: competition ELISA, IL-17A binding to coated IL-17RA-Fc. For orientation: In an ELISA, binding on a coated surface is turned into a signal by an enzyme label.
Test [3] has as its target T1, recombinant human IL-17A. Briefly: SPR (BIAcore T200), IL-17A coupled to CM5 chip, single-cycle kinetics. (SPR reads the build-up and loss of mass on a sensor chip optically.)
The target of test [4] is T1, recombinant human IL-17A. Briefly: competition ELISA, IL-17A binding to coated IL-17RA-Fc. This is another data set of the same source.
In test [5] the target is T1, recombinant human IL-17A. Briefly: BIAcore single-cycle kinetics on IL-17A (n=2 per legend).
Test [6] deals with T1, recombinant human IL-17A. Briefly: SPR (BIAcore T200), IL-17A coupled to CM5 chip, single-cycle kinetics. The source holds these as a separate data set.
In test [7] the target is T1, recombinant human IL-17A. Briefly: BIAcore single-cycle kinetics, ligand Il-17, 1:1 binding fit, 25 C (n=1 per legend).
The target in test [8] is T1, recombinant human IL-17A. Briefly: cell-based or functional assay. The source holds these as a separate data set.
For test [9], the target named is T1, recombinant human IL-17A. Briefly: BIAcore single-cycle kinetics on IL-17A (n=2 per legend). This is another data set of the same source.
The target of test [10] is T1, recombinant human IL-17A. Briefly: SPR (BIAcore T200), IL-17A coupled to CM5 chip, single-cycle kinetics. This is another data set of the same source.
The target in test [11] is T1, recombinant human IL-17A. Briefly: BIAcore single-cycle kinetics, ligand Il-17, 1:1 binding fit, 25 C (n=1 per legend). The source holds these as a separate data set.
For test [12], the target named is T1, recombinant human IL-17A. Briefly: cell-based or functional assay. This is another data set of the same source.
Test [13] addresses T1, recombinant human IL-17A. Briefly: cell-based or functional assay. This is another data set of the same source.
Test [14] deals with T1, recombinant human IL-17A. Briefly: BIAcore single-cycle kinetics on immobilised IL-17A, 1:1 binding fit.
For test [15], the target named is T2, IL-17C (UniProt Q9P0M4 19-197, limits assumed).
T2 sequence (looked up): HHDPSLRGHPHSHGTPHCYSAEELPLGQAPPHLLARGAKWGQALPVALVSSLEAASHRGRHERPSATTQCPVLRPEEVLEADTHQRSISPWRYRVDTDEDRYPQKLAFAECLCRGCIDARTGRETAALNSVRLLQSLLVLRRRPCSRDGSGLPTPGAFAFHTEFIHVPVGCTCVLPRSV
Briefly: specificity ELISA on coated antigen, VH concentration not given.

Test [16] has as its target T3, recombinant IL-17RA-Fc (UniProt Q96F46 33-320).
T3 construct: Bought reagent; also called R & D systems cat #177-IR-100; receptor; not shown: Fc part of the bought fusion, not described
Described as above.

The target of test [17] is T4, murine IL-17A (murine, UniProt Q62386 26-158, limits assumed).
T4 sequence (looked up): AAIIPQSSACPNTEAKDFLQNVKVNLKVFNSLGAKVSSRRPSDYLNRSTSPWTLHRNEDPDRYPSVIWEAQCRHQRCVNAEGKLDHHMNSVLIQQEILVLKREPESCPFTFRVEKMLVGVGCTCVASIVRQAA
Described as above.

For test [18], the target named is T5, IL-17F (UniProt Q96PD4 31-163, limits assumed).
T5 sequence (looked up): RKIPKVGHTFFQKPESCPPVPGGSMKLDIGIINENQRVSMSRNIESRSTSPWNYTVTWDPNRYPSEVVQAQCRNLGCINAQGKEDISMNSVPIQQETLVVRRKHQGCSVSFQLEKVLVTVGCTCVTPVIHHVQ
The test is described as above.

In test [19] the target is T1, recombinant human IL-17A. Briefly: SPR (BIAcore).
The target of test [20] is T1, recombinant human IL-17A. Briefly: competition ELISA, IL-17A binding to coated IL-17RA-Fc; FIG. 9A.
The target of test [21] is T2, IL-17C. Briefly: specificity ELISA on coated antigen, VH concentration not given. This is another data set of the same source.
Test [22] addresses T6, IL17E.
T6 construct: also called IL-25
T6 chain: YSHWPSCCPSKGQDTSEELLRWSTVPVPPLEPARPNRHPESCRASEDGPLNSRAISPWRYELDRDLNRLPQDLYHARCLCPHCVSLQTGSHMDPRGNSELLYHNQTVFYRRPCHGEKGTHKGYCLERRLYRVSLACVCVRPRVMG
Described as above.

The target of test [23] is T5, IL-17F. The description is as above. The source holds these as a separate data set.
Test [24] deals with T1, recombinant human IL-17A. Briefly: VH screening as in examples 7 and 8.
The target of test [25] is T1, recombinant human IL-17A. Briefly: BIAcore single-cycle kinetics on immobilised IL-17A, 1:1 binding fit. The source holds these as a separate data set.

T1 sequence (Q16552 24-155): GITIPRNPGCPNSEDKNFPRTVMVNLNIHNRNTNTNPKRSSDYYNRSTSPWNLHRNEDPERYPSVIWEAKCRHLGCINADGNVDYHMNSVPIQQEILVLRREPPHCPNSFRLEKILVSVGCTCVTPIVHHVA

B1: Family 2 (clone 2.1) (VHH)
VHH: QVQLVESGGGLVQPGGSLRLSCAASGFTFSSYGMGWVRQAPGKGLEWVAKIKQDGSEKDYVDSVKGRFTISRDNAKKSLFLQMNSLRAEDTAVYYCARESIFGIPEDWGQGTLVTVSS
notes: Human single VH domain; also called VH 2.1.1
For orientation: IC50 means the point on the concentration scale where inhibition reaches its midpoint. By Kd is commonly meant the constant that tells how readily two partners part at equilibrium. In general, koff refers to the rate constant with which the complex falls apart. By kon is commonly meant the rate constant with which the complex forms. In the case of B1, in [1], the “Cell assay IC50 (nM), IL-17A-induced IL6 release from HT1080” value (“Cell assay IC50 (nM)” for short) was determined as 8.3 nM. Also, the IC50 in test [2] was found to be 32 nM. Further, in [3], the Kd is 2 nM, the koff was 0.00247 s⁻¹ and the kon is 1.22e+06 M⁻¹ s⁻¹.

B2: VH 3.2.1 (clone 3.2 expressed from phagemid vector: with linker residues and His tag) (VHH)
VHH: QVQLVQSGAEVKKPGASVKVSCKASGYNADAYYINWVRQAPGQGLEWMGSIKPNTGATKYAQKFQGRVTITRDTSISTAYMELSRLRSDDTAVYYCASLDRDTWYPHSYAGWFDAWGQGTLVTVSS
notes: Human single VH domain
As to B2, in test [4], the IC50 is 2.5 nM. In test [5], the Kd was 0.212 nM. Moreover, in [6], the Kd was 0.23 nM, the koff came out at 0.000252 s⁻¹ and the kon is 1.1e+06 M⁻¹ s⁻¹. For the same molecule, in test [7], the Kd is 0.15 nM, the koff was found to be 0.000349 s⁻¹ and the kon is 2.28e+06 M⁻¹ s⁻¹. For the same molecule, the “Cell assay IC50 (nM)” value in test [8] is 2.5 nM.

B3: Family 5 (clone 5.1) (VHH)
VHH: EVQLVESGGGLVQPGGSLRLSCAASGFTFSSYWMSWVRQAPGKGLEWVANIKQDGSEKYYVDSVKGRFTISRDNAKNSLYLQMNSLRAEDTAVYYCAHGQWPFFDYWGQGTMVTVSS
notes: Human single VH domain
Turning to B3, the IC50 in test [2] turned out to be 337 nM. Further, in test [3], the Kd was found to be 166 nM, the koff came out at 0.0505 s⁻¹ and the kon worked out at 304000 M⁻¹ s⁻¹.

B4: Clone 1.2 (VHH)
VHH: EVQLVESGGGLVQPGGSLRLSCAASGFTFSSYSMYWVRQAPGKGLEWVAEIKQDGSVQYYVSDVKGRFTISRDNAKNSLYLQMNSLRAEDTAVYYCAKGEILPLYFDYWGQGTLVTVSS
A word on the EC50 (read off the curve): it is the concentration at which the effect is half-maximal. B4: in test [9], the Kd came out at 0.57 nM. For the same molecule, in test [10], the Kd turned out to be 0.555 nM, the dissociation rate constant (koff) was found to be 0.000485 s⁻¹ and the kon worked out at 874000 M⁻¹ s⁻¹. Further, in test [11], the Kd stood at 0.675 nM, the koff worked out at 2.26e-05 s⁻¹ and the kon amounted to 33500 M⁻¹ s⁻¹. Further, the “EC50 (read off the curve)” value in test [12] was ~0.8 nM. In addition, the “Cell assay IC50 (nM)” value in [13] was 0.4 nM.

B5: VH 1.3.3 (clone 1.3 with C terminal extension) (VHH)
VHH: B4 VHH with S62D, D63S
notes: Human single VH domain
Turning to B5, in test [14], the Kd is 0.68 nM and the kon amounted to 750000 M⁻¹ s⁻¹.

B6: Clone 1.15 (VHH)
VHH: B4 VHH with K52R, V57E, S62D, D63S
notes: Human single VH domain
Turning to B6, the Kd in test [10] amounted to 0.232 nM. In addition, the koff in test [10] came to 0.000242 s⁻¹. Further, the kon in test [10] stood at 1.04e+06 M⁻¹ s⁻¹. Also, the binding result was “no binding” in test [15], “no binding” in [16], “binds” in test [17] and “no binding” in test [18]. In addition, the “Cell assay IC50 (nM)” value in test [13] came to 2.5 nM.

B7: VH 1.3.2 (clone 1.3 with C terminal extension and His tag) (VHH)
VHH: B4 VHH with S62D, D63S
notes: Human single VH domain
Turning to B7, the Kd in [19] was 0.63 nM. Also, in test [14], the dissociation rate constant (koff) stood at 0.000501 s⁻¹ and the kon turned out to be 799000 M⁻¹ s⁻¹.

B8: VH 1.6.1 (clone 1.6 expressed from phagemid vector: with linker residues and His tag) (VHH)
VHH: B4 VHH with V57E, S62D, D63S
notes: Human single VH domain
Take B8: the IC50 in test [20] stood at 5 nM. For the same molecule, the results for the Kd in [10] and in [19] were 0.627 nM and 0.63 nM, respectively. In addition, the koff in test [10] turned out to be 0.000482 s⁻¹. Besides, the on-rate (kon) in [10] turned out to be 770000 M⁻¹ s⁻¹. Besides, the binding result in test [21], in test [22] and in [23] was “no binding” throughout. Further, the “fold improved affinity over clone 1.1” value in test [24] is ≤ 10 fold. In addition, the “Cell assay IC50 (nM)” value in test [13] was found to be 1.3 nM.

B9: VH 1.10.1 (clone 1.10 expressed from phagemid vector: with linker residues and His tag) (VHH)
VHH: B4 VHH with S33R, E50S, K52E, V57E, Q58E, S62D, D63S, N77K, Y80F
notes: Human single VH domain
With B9, in [20], the IC50 is 4 nM. In addition, the values for the dissociation constant (Kd) in [10] and in test [19] were 1.46 nM and 1 nM, respectively. Also, the koff in test [10] came to 0.000966 s⁻¹; in [25], 0.000755 s⁻¹. Further, the figures for the kon in test [10] and in test [25] were 664000 M⁻¹ s⁻¹ and 700000 M⁻¹ s⁻¹, respectively. The binding result was “no binding” in test [22]; “no binding” in test [15]; “no binding” in test [16]; “binds” in test [17]; “no binding” in [18]. In addition, the “fold improved affinity over clone 1.1” value in test [24] was ≤ 10 fold. For the same molecule, the “Cell assay IC50 (nM)” value in test [13] came out at 1.9 nM.

B10: VH 1.7.1 (clone 1.7 expressed from phagemid vector: with linker residues and His tag) (VHH)
VHH: B4 VHH with E1Q, S33G, E50K, K52E, V57E, Q58E, S62D, D63S, N77K
notes: Human single VH domain
On to B10, for which, in test [20], the IC50 amounted to 7 nM. Further, in test [10], the Kd came to 0.609 nM, the koff was determined as 0.000466 s⁻¹ and the kon turned out to be 765000 M⁻¹ s⁻¹. In addition, the “fold improved affinity over clone 1.1” value in test [24] is ≤ 10 fold. For the same molecule, the “Cell assay IC50 (nM)” value in test [13] was 2 nM.

B11: Family 4 (clone 4.1) (VHH)
VHH: QVQLVESGGGLVQPGGSLRLSCAASGFTFSSYWMNWVRQAPGKGLEWVATIKQDGSEKYYVDSVKGRFTISRDNATNSLFLQMNSLRAEDTAVYYCARGDTIFDGAFDIWGQGTMVTVSS
notes: Human single VH domain
Consider B11, for which the IC50 in test [2] was found to be 3140 nM. In test [3], the Kd is 493 nM, the koff is 0.00289 s⁻¹ and the kon was found to be 5860 M⁻¹ s⁻¹.
